{"source": "patent US20260242489A1", "about": "(HUAHUI HEALTH, published 2026)", "binders": {"B1": {"name": "G5V2 (human IgG1 form) (antibody, V domains shown)", "VH": "QVQLVQSGAEVKRPGSSVKVSCKASGGISDGSAISWVRQAPGQGLEWMGGIYFFNGNTNYAQKFQGRVTITADESTSTAYMELSSLRSEDTAVYYCARDSSLGYYDYFDYWGQGTLVTVSS", "VL": "QPVLTQPPSVSAAPGQTARITCGGNNIGEKYVQWYQQRPGQAPVLVIYYDDDRPSGIPERFSGSNSGNTAALTINSVEAGDEADYYCQAWDDYDPVVFGGGTQLTVLG"}, "B2": {"name": "G5V2 Y32E (phage display Fab form) (Fab, V domains shown)", "VH": "B1 VH", "VL": "QPVLTQPPSVSAAPGQTARITCGGNNIGEKEVQWYQQRPGQAPVLVIYYDDDRPSGIPERFSGSNSGNTAALTINSVEAGDEADYYCQAWDDYDPVVFGGGTQLTVL", "notes": "Y32 is Kabat numbering"}, "B3": {"name": "14C07 (full-length human IgG1 form) (antibody, V domains shown)", "VH": "QVQLVQSGAEVKRPGSSVKVSCKASGGTFSSYAISWVRQAPGQGLEWMGGIIPIFGTANYAQKFQGRVTITADESTSTAYMELSSLRSEDTAVYYCARDSSSGWYDYFDYWGQGTLVTVSS", "VL": "QPVLTQPPSVSAAPGAMARITCESPDIGSKSVQWYQQRPGQAPILVIYYDDDRPSGIPERFSGSNSGNTAALTINWVEPEDEADYYCQAWDDSDPVVFGGGTQLTVLG"}}, "key": {"[1]": {"target": "T1, hEGFR ECR-His6-Avi-Biotin (human, UniProt P00533 25-642, biotinylated on the Avi tag using BirA ligase)", "T1 construct": "also called WT hEGFR ECR; human EGFR ECD; not shown: His6-Avi tag", "assay": "ELISA: antibody coated on plate, hEGFR ECR titrated (Log[Ag] nM), detected through its His tag; pH not given [table]"}, "[2]": {"target": "T2, mEGFR ECR (His6-Avi-tagged) (mouse, UniProt Q01279 25-644)", "T2 construct": "also called mouse EGFR; not shown: His6-Avi tag", "assay": "ELISA: mEGFR ECR on plate, IgG1 titrated, anti-hFc-HRP; EC50 at pH 7.4 over EC50 at pH 6.5 [table]"}, "[3]": {"target": "T1, hEGFR ECR-His6-Avi-Biotin", "assay": "ELISA: hEGFR ECR on plate, IgG1 titrated, anti-hFc-HRP; pH 6.5 [table]"}, "hEGFR ECR H370A [4]": {"target": "T3, hEGFR ECR H370A (human, UniProt P00533 25-642)", "assay": "ELISA: G5V2 IgG1 coated on plate, antigen titrated, HRP-labeled His-Tag antibody; pH 7.4"}, "[5]": {"target": "T1, hEGFR ECR-His6-Avi-Biotin", "assay": "ELISA: G5V2 IgG1 coated on plate, antigen titrated, HRP-labeled His-Tag antibody; pH 7.4"}, "[6]": {"target": "T2, mEGFR ECR (His6-Avi-tagged)", "assay": "IgG1 ELISA at pH 6.5, mEGFR ECR against hEGFR ECR"}, "[7]": {"target": "T1, hEGFR ECR-His6-Avi-Biotin", "assay": "ELISA: hEGFR ECR on plate, IgG1 titrated, anti-hFc-HRP; pH 7.4 [table]"}, "[8]": {"target": "T2, mEGFR ECR (His6-Avi-tagged)", "assay": "ELISA: mEGFR ECR on plate, IgG1 titrated, anti-hFc-HRP; pH 7.4 [table]"}, "[9]": {"target": "T1, hEGFR ECR-His6-Avi-Biotin", "assay": "ELISA: G5V2 IgG1 coated on plate, antigen titrated, HRP-labeled His-Tag antibody; pH 7.4", "remark": "listed apart in the source"}, "[10]": {"target": "T2, mEGFR ECR (His6-Avi-tagged)", "assay": "ELISA: mEGFR ECR on plate, IgG1 titrated, anti-hFc-HRP; pH 6.5 [table]"}, "[11]": {"target": "T1, hEGFR ECR-His6-Avi-Biotin", "assay": "ELISA: hEGFR ECR on plate, IgG1 titrated, anti-hFc-HRP; pH 6.5 [table]", "remark": "listed apart in the source"}, "[12]": {"target": "T1, hEGFR ECR-His6-Avi-Biotin", "assay": "ELISA: hEGFR ECR on plate, IgG1 titrated, anti-hFc-HRP; EC50 at pH 7.4 over EC50 at pH 6.5 [table]"}, "[13]": {"target": "T1, hEGFR ECR-His6-Avi-Biotin", "assay": "ELISA: hEGFR ECR on plate, IgG1 titrated, anti-hFc-HRP; pH 7.4 [table]", "remark": "listed apart in the source"}, "[14]": {"target": "human EGFR domain III (human) (UniProt P00533)", "assay": "ELISA: antibody coated on plate, hEGFR domain III titrated (Log[Ag] nM), detected through its His tag; pH not given [table]"}, "[15]": {"target": "T1, hEGFR ECR-His6-Avi-Biotin", "assay": "ELISA: hEGFR ECR on plate, IgG1 titrated, anti-hFc-HRP; EC50 at pH 7.4 over EC50 at pH 6.5 [table]", "remark": "listed apart in the source"}, "[16]": {"target": "T1, hEGFR ECR-His6-Avi-Biotin", "assay": "phage display Fab ELISA on hEGFR ECR, pH 6.5"}, "[17]": {"target": "T1, hEGFR ECR-His6-Avi-Biotin", "assay": "phage display Fab ELISA on hEGFR ECR"}, "[18]": {"target": "T1, hEGFR ECR-His6-Avi-Biotin", "assay": "phage display Fab ELISA on hEGFR ECR, pH 6.5 and pH 7.4"}, "[19]": {"target": "T1, hEGFR ECR-His6-Avi-Biotin", "assay": "phage ELISA: hEGFR ECR on plate, phage display Fab titrated, anti-M13-HRP; EC50 at pH 7.4 over EC50 at pH 6.5 [table]"}, "[20]": {"target": "T1, hEGFR ECR-His6-Avi-Biotin", "assay": "ELISA: WT hEGFR ECR on plate, IgG1 titrated, anti-hFc-HRP; pH 6.5 [table]"}, "hEGFR ECR H370A [21]": {"target": "T3, hEGFR ECR H370A", "assay": "ELISA: hEGFR ECR H370A on plate, IgG1 titrated, anti-hFc-HRP; pH 7.4 [table]"}, "[22]": {"target": "T1, hEGFR ECR-His6-Avi-Biotin", "assay": "competition ELISA: hEGFR ECR on plate, IgG1 titrated in a mixture with EGF-mFc, bound EGF-mFc detected with anti-mFc-HRP; pH 6.0 [left panel]"}, "hEGFR ECR H433A": {"target": "hEGFR ECR H433A (human, UniProt P00533 25-642)", "assay": "ELISA: hEGFR ECR H433A on plate, IgG1 titrated, anti-hFc-HRP; pH 6.5 and pH 7.4"}, "[23]": {"target": "T1, hEGFR ECR-His6-Avi-Biotin", "assay": "ELISA: hEGFR ECR on plate, IgG1 titrated, anti-hFc-HRP; pH 6.0 [left panel]"}, "[24]": {"target": "T1, hEGFR ECR-His6-Avi-Biotin", "assay": "ELISA: WT hEGFR ECR on plate, IgG1 titrated, anti-hFc-HRP; EC50 at pH 7.4 over EC50 at pH 6.5 [table]"}, "hEGFR ECR H370A [25]": {"target": "T3, hEGFR ECR H370A", "assay": "IgG1 ELISA, pH 6.5 and pH 7.4 (EC50 ratio pH 7.4/pH 6.5)"}, "[26]": {"target": "T1, hEGFR ECR-His6-Avi-Biotin", "assay": "ELISA: hEGFR ECR on plate, IgG1 titrated, anti-hFc-HRP; pH 7.4 [left panel]"}, "hEGFR ECR H370A [27]": {"target": "T3, hEGFR ECR H370A", "assay": "ELISA: hEGFR ECR H370A on plate, IgG1 titrated, anti-hFc-HRP; EC50 at pH 7.4 over EC50 at pH 6.5 [table]"}, "[28]": {"target": "T1, hEGFR ECR-His6-Avi-Biotin", "assay": "ELISA: WT hEGFR ECR on plate, IgG1 titrated, anti-hFc-HRP; pH 7.4 [table]"}, "hEGFR ECR H370A [29]": {"target": "T3, hEGFR ECR H370A", "assay": "ELISA: hEGFR ECR H370A on plate, IgG1 titrated, anti-hFc-HRP; pH 6.5 [table]"}}, "note": "Like-named read-outs stand apart in the source and are kept apart here.", "data": [{"binder": "B1", "values": [{"measurement": "EC50", "setting": "[1]", "value": 1240, "unit": "pM"}, {"measurement": "EC50 ratio (pH 7.4/pH 6.5)", "setting": "[2]", "value": 1.24}, {"measurement": "EC50", "setting": "[3]", "value": 502, "unit": "pM"}, {"measurement": "EC50 (read off the curve)", "setting": "hEGFR ECR H370A [4]", "value": "~3000", "unit": "pM"}, {"measurement": "EC50 (read off the curve)", "setting": "[5]", "value": "~3000", "unit": "pM"}, {"measurement": "EC50 ratio, mEGFR/hEGFR (pH 6.5)", "setting": "[6]", "value": 1.23}, {"measurement": "EC50", "setting": "[7]", "value": 595, "unit": "pM"}, {"measurement": "EC50", "setting": "[8]", "value": 46, "unit": "pM"}, {"measurement": "EC50 (read off the curve)", "setting": "[9]", "value": "~2000", "unit": "pM"}, {"measurement": "EC50", "setting": "[10]", "value": 37, "unit": "pM"}, {"measurement": "EC50", "setting": "[11]", "value": 30, "unit": "pM"}, {"measurement": "EC50 ratio (pH 7.4/pH 6.5)", "setting": "[12]", "value": 1.19}, {"measurement": "EC50", "setting": "[13]", "value": 31, "unit": "pM"}, {"measurement": "EC50", "setting": "[14]", "value": 2370, "unit": "pM"}, {"measurement": "EC50 ratio (pH 7.4/pH 6.5)", "setting": "[15]", "value": 1.03}]}, {"binder": "B2", "values": [{"measurement": "fold decrease of binding affinity at pH 6.5 against G5V2", "setting": "[16]", "value": "~8", "unit": "fold"}, {"measurement": "fold higher binding affinity over G5V2 Y32D", "setting": "[17]", "value": "~3", "unit": "fold"}, {"measurement": "fold higher pH-dependent binding over WT G5V2", "setting": "[18]", "value": "~13", "unit": "fold"}, {"measurement": "EC50 ratio (pH 7.4/pH 6.5)", "setting": "[19]", "value": 15.6}]}, {"binder": "B3", "values": [{"measurement": "EC50 ratio (pH 7.4/pH 6.5)", "setting": "[2]", "value": 6.52}, {"measurement": "EC50", "setting": "[20]", "value": 301, "unit": "pM"}, {"measurement": "EC50", "setting": "hEGFR ECR H370A [21]", "value": 462, "unit": "pM"}, {"measurement": "IC50", "setting": "[22]", "value": 29000, "unit": "pM"}, {"measurement": "binding result", "setting": "hEGFR ECR H433A", "value": "no binding (tested: 100 nM (Log[Ab] 2))"}, {"measurement": "EC50", "setting": "[23]", "value": 20, "unit": "pM"}, {"measurement": "EC50 ratio, mEGFR/hEGFR (pH 6.5)", "setting": "[6]", "value": 8.73}, {"measurement": "EC50", "setting": "[8]", "value": 2730, "unit": "pM"}, {"measurement": "EC50 ratio (pH 7.4/pH 6.5)", "setting": "[24]", "value": 2.72}, {"measurement": "EC50", "setting": "[10]", "value": 419, "unit": "pM"}, {"measurement": "EC50", "setting": "[11]", "value": 48, "unit": "pM"}, {"measurement": "fold weaker pH-dependency of binding than with WT EGFR ECR", "setting": "hEGFR ECR H370A [25]", "value": "> 2", "unit": "fold"}, {"measurement": "EC50", "setting": "[26]", "value": 662, "unit": "pM"}, {"measurement": "EC50 ratio (pH 7.4/pH 6.5)", "setting": "hEGFR ECR H370A [27]", "value": 1.07}, {"measurement": "EC50", "setting": "[28]", "value": 818, "unit": "pM"}, {"measurement": "EC50", "setting": "hEGFR ECR H370A [29]", "value": 433, "unit": "pM"}, {"measurement": "EC50", "setting": "[13]", "value": 155, "unit": "pM"}, {"measurement": "EC50 ratio (pH 7.4/pH 6.5)", "setting": "[15]", "value": 3.23}]}]}
